Laboratory results as given in patent publication US20170051041A1.

Experiments:
Assay in all cases: SPR single-cycle kinetics; reference WT-FVIII-C2
[1] = target: FVIII-C2 mutein F2200A (human) (UniProt P00451)
[2] = target: FVIII-C2 mutein S2254A (human) (UniProt P00451)
[3] = target: FVIII-C2 mutein H2315A (human) (UniProt P00451)
[4] = target: FVIII-C2 mutein L2252A (human) (UniProt P00451)
[5] = target: FVIII-C2 mutein Q2316A (human) (UniProt P00451)
[6] = target: FVIII-C2 mutein E2228A (human) (UniProt P00451)
[7] = target: FVIII-C2 mutein R2220A (human) (UniProt P00451)

Sequence of Fab fragment of human anti-FVIII mAb BO2C11 (VH): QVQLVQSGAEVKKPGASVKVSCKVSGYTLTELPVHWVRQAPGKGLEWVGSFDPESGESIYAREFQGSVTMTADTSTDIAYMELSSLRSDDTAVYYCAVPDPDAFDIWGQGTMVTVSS
Sequence of Fab fragment of human anti-FVIII mAb BO2C11 (VL): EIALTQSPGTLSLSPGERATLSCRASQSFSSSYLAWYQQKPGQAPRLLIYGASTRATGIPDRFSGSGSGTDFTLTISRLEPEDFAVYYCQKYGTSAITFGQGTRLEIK
Sequence of UniProt P00451 (P00451 2189-2351 F2219A): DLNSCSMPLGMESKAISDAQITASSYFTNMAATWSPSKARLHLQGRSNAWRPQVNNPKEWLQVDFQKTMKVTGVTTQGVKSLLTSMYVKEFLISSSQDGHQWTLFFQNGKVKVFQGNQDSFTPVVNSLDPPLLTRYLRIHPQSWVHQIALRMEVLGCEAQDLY

Row | kd(mutein)/kd(WT) [1] | kd(mutein)/kd(WT) [7] | other results | Substance
1 | > 2 fold | – | – | Fab fragment of human anti-FVIII mAb BO2C11
2 | > 2 fold | – | kd(mutein)/kd(WT) [2]: > 2 fold; kd(mutein)/kd(WT) [3]: > 2 fold; kd(mutein)/kd(WT) [4]: > 2 fold; kd(mutein)/kd(WT) [5]: > 2 fold; kd(mutein)/kd(WT) [6]: > 2 fold | Murine anti-FVIII C2 domain mAb 1B5 (GMA-8008) (antibody)
3 | – | 3 fold | – | Murine anti-FVIII C2 domain mAb 2-117 (GMA-8003) (antibody)
4 | > 2 fold | – | – | Murine anti-FVIII C2 domain mAb 3D12 (antibody)
5 | – | 2.7 fold | – | Murine anti-FVIII C2 domain mAb ESH4 (antibody)
6 | – | 4.5 fold | – | Murine anti-FVIII C2 domain mAb ESH8 (antibody)
7 | > 2 fold | – | – | Murine anti-FVIII C2 domain mAb I109 (antibody)
